# Reference: publication doi:10.1101/2024.11.03.621705 (bioRxiv, 2024)
# Biological target: the molecule itself
# Assay: cryo-EM structure
protein,measurement,value
"mouse TRPC5 with a 210-amino-acid C-terminal truncation, with N-terminal 3xFlag tag and MBP (recombinant plasmid FMC5) (domain or fragment, UniProt Q9QX29 1-765, looked up) MAQLYYKKVNYSPYRDRIPLQIVRAETELSAEEKAFLSAVEKGDYATVKQALQEAEIYYNVNINCMDPLGRSALLIAIENENLEIMELLLNHSVYVGDALLYAIRKEVVGAVELLLSYRKPSGEKQVPTLMMDTQFSEFTPDITPIMLAAHTNNYEIIKLLVQKRVTIPRPHQIRCNCVECVSSSEVDSLRHSRSRLNIYKALASPSLIALSSEDPILTAFRLGWELKELSKVENEFKAEYEELSQQCKLFAKDLLDQARSSRELEIILNHRDDHSEELDPQKYHDLAKLKVAIKYHQKEFVAQPNCQQLLATLWYDGFPGWRRKHWVVKLLTCMTIGFLFPMLSIAYLISPRSNLGLFIKKPFIKFICHTASYLTFLFMLLLASQHIVRTDLHVQGPPPTVVEWMILPWVLGFIWGEIKEMWDGGFTEYIHDWWNLMDFAMNSLYLATISLKIVAYVKYNGSRPREEWEMWHPTLIAEALFAISNILSSLRLISLFTANSHLGPLQISLGRMLLDILKFLFIYCLVLLAFANGLNQLYFYYETRAIDEPNNCKGIRCEKQNNAFSTLFETLQSLFWSVFGLLNLYVTNVKARHEFTEFVGATMFGTYNVISLVVLLNMLIAMMNNSYQLIADHADIEWKFARTKLWMSYFDEGGTLPPPFNIIPSPKSFLYLGNWFNNTFCPKRDPDGRRRRHNLRSFTERHADSLIQNQHYQEVIRNLVKRYVAAMIRNSKTNEGLTEENFKELKQDISSFRYEVLDLLGNRK",binding result,binds
